The target in test [1] is T1, Purified luminal domain LIMP-2 (ld-LIMP2) (UniProt Q14108 28-433, limits assumed).
T1 construct: domain: luminal domain; also called LIMP-2/SCARB2
T1 sequence (looked up): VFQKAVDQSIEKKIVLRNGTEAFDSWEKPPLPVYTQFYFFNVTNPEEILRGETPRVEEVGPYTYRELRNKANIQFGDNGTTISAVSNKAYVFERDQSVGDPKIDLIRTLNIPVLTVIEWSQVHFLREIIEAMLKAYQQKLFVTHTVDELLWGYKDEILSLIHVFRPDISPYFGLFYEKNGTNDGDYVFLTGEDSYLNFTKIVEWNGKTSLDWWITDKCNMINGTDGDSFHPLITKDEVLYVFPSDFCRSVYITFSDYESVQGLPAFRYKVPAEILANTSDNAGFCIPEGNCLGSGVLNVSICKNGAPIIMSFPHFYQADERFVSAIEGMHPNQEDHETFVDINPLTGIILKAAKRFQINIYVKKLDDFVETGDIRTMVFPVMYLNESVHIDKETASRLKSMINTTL
In words: fluorescence polarization, FITC peptide titrated, ldLIMP2 fixed at 50 nM (FIG. 7A). As for the experimental part:
FIG. 7A-FIG. 7C: Binding and competition of fluorescent labeled or unlabeled DSPIIV (SEQ ID NO 15) GCase peptides to ldLIMP2. The change (δmP) in fluorescence polarization is plotted on the ordinate and the increasing concentrations of the various peptides are on the abscissa. FIG. 7A depicts saturation kinetics under conditions in which the concentration of ldLIMP2 (50 nM) was fixed. […] FIG. 7B depicts a similar study using unlabeled peptides as competitors. […] Each of the unlabeled peptides “competed” with the labeled peptides in the expected ratios. FIG. 7C depicts a competition study in which labeled (WT*) and unlabeled (WT) peptides were used in complementary competition studies.
Fluorescence Polarization: The DSPIIV (SEQ ID NO 15) and its mutants, and DDQRLLL (SEQ ID NO 14) peptides (FITC labeled or non-labeled) were synthesized (American Peptide Co., Vista, Calif.). Lyophilized peptides were solubilized in acetonitrile and then were diluted at least 10,000-fold into the reactions for fluorescence polarization assessments. The reactions were done at least in duplicate at various peptide and LIMP-2 concentrations (SpectraMax M5, Molecular Device). Fluorescence polarization data were collected and analyzed with SoftMax Pro 5.0 software. Reaction mixtures contained 100 mM phosphate, pH 6.8 and 1 mM DTT.
Background: Polarisation of emitted light reports the rotation of a fluorescent probe.

The target of test [2] is T1, Purified luminal domain LIMP-2 …. The test can be described thus: peptide binding to ldLIMP-2 at pH 6.8 (FIG. 9).
The target is the same in test [3]. In words: peptide binding to ldLIMP2 at pH 6.8 (FIG. 9).
In test [4] the target is T2, LIMP-2 in Gba1-/- fibroblasts (endogenous, detected by anti-LIMP2 immunofluorescence) (UniProt O35114 1-478, limits assumed).
T2 sequence (looked up): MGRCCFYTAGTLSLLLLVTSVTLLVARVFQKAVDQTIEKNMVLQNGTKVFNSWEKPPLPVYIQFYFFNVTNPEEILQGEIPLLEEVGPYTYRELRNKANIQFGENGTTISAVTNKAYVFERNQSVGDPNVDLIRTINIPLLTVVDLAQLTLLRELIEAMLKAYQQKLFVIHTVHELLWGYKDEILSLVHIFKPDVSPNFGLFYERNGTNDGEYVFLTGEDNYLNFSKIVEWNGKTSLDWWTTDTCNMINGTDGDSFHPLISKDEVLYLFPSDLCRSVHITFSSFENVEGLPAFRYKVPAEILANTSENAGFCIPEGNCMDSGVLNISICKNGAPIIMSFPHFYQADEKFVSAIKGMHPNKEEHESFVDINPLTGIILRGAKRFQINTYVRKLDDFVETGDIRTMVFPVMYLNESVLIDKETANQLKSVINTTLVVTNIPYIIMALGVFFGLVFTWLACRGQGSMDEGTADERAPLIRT
In words: cell-based or functional assay.

Test [5] concerns the target T1, Purified luminal domain LIMP-2 …. The test can be described thus: in vitro immunoprecipitation of purified GCase with ldLIMP-2 (1:1) on anti-LIMP2 beads, immunoblot (FIG. 6B). The text has this: Immunoprecipitation of GCases with mutations in the TKD sequence: For immunoblots, Gba1 knockout mouse fibroblasts (null/null) were transfected with the GBA1 constructs (WT or mutants) and expressed for 5 days. The GCases from harvested cell lysates were purified using a GCase antibody affinity column (Dynabeads protein G crosslinked (BS3) with rabbit anti-human GCase antibody). […] Aliquots of each step (loading, wash and eluent) were collected and analyzed on 12.5% SDS gels. Immunoblots were developed using anti-human GCase antibody and AP conjugated color development kits. Mock experiments with either non-LIMP2 proteins added or no GCases added, were used as control. The quantitations of these immunoprecipitation data were obtained from densitometry measurements of the gels. The no-LIMP-2 bars are the controls for comparison, since GCase was processed through all steps without LIMP-2 to account for any losses of GCase; About 50% of the GCase was lost during processing.
A general note: A western blot detects proteins with antibodies after separation by electrophoresis.

Residue numbers refer to the chain shown, from its start. Names and notes keep the numbering of the source. Primed or numbered codes have the meaning given here. No end group written: not given here. FITC′ = fluorescein isothiocyanate (fluorescent probe) Where only a bound is given, the exact number is not on record here.

In test [1], DSPIIV-{FITC′} (also called WT peptide; WT*) [DSPIIV (SEQ ID NO 15) GCase peptide, FITC labeled] returned an EC50 of about 50 nM. For the molecule ASPAAV-{FITC′} (also called ASPAAP) [ASPAAV peptide (triple mutant: alanines for D399, I402 and I403), FITC labeled], the “percent decrease in binding” value in test [2] was about 90%. In addition, the “binding relative to WT” value in test [3] was < 10 % of WT.

B1: ASPIIV (SEQ ID NO 16) (D399A) GCase (enzyme)
chain: ARPCIPKSFGYSSVVCVCNATYCDSFDPPTFPALGTFSRYESTRSGRRMELSMGPIQANHTGTGLLLTLQPEQKFQKVKGFGGAMTDAAALNILALSPPAQNLLLKSYFSEEGIGYNIIRVPMASCDFSIRTYTYADTPDDFQLHNFSLPEEDTKLKIPLIHRALQLAQRPVSLLASPWTSPTWLKTNGAVNGKGSLKGQPGDIYHQTWARYFVKFLDAYAEHKLQFWAVTAENEPSAGLLSGYPFQCLGFTPEHQRDFIARDLGPTLANSTHHNVRLLMLDDQRLLLPHWAKVVLTDPEAAKYVHGIAVHWYLDFLAPAKATLGETHRLFPNTMLFASEACVGSKFWEQSVRLGSWDRGMQYSHSIITNLLYHVVGWTDWNLALNPEGGPNWVRNFVASPIIVDITKDTFYKQPMFYHLGHFSKFIPEGSQRVGLVASQKNDLDAVALMHPDGSAVVVVLNRSSKDVPLTIKDPAVGFLETISPGYSIHTYLWRRQ
As for B1, the “% Secreted” value in test [4] came to 36%.

B2: DSPIAV (SEQ ID NO 18) (I403A) GCase (enzyme)
chain: B1 chain with A399D, I403A
Consider B2, for which, in test [4], the “% Secreted” value stood at 23%.

B3: DSPAIV (SEQ ID NO 17) (I402A) GCase (enzyme)
chain: B1 chain with A399D, I402A
B3: the “% Secreted” value in test [4] turned out to be 22%.

B4: DSPAAV (SEQ ID NO 19) (I402A+I403A) GCase, double mutant (enzyme)
chain: B1 chain with A399D, I402A, I403A
For the molecule B4, in test [4], the “% Secreted” value was 83%.

B5: AAA GCase (triple alanine mutant in the TKD sequence, amino acids 407-409) (enzyme)
chain: B1 chain with A399D, T407A, K408A, D409A
notes: Made from full length pCMV-GCase-GFP or YFP vectors; also called AAA mutant
For B5, in test [5], the binding result is “no binding”.

In general, EC50 refers to the concentration that produces a half-maximal response. Low values mean higher potency in that assay, high ones lower potency in that assay.

The record behind these values is patent publication US20160237414A1 (CHILDREN S HOSPITAL MEDICAL CENTER, published 2016).
